Broadly, the Kd is the free concentration of one partner at which half of the binding sites on the other are occupied at equilibrium, for simple one-to-one binding. Read a low Kd as a tighter complex.

Sequence of Integrin alpha1beta1 (P56199 29-1141, chain 1 of 2): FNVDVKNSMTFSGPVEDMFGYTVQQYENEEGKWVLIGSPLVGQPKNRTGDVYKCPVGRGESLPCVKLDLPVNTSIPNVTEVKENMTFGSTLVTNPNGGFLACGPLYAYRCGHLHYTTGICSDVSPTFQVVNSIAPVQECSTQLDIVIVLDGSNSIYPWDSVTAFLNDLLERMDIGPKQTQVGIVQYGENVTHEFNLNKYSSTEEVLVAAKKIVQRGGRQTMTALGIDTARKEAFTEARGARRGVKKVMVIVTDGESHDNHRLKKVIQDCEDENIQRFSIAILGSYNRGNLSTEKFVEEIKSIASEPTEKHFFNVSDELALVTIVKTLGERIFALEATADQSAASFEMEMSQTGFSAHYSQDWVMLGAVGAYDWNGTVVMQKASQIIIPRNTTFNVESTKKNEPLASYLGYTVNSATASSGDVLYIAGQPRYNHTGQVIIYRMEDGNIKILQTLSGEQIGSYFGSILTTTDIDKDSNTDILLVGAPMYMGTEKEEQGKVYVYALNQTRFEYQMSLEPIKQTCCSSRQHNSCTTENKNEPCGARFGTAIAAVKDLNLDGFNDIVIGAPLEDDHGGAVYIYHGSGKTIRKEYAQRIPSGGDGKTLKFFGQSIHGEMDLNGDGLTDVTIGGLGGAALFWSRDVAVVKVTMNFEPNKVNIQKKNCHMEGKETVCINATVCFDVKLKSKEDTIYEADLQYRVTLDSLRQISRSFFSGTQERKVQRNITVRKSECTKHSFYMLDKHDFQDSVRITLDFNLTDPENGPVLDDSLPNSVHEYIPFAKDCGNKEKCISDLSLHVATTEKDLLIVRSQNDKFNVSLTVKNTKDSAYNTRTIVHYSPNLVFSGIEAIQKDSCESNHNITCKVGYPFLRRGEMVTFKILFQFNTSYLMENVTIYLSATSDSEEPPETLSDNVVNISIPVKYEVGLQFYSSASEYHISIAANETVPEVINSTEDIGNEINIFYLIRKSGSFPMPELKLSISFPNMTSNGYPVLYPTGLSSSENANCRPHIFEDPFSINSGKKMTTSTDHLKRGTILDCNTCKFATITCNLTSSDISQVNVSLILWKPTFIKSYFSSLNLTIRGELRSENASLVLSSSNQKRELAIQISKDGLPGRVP
Sequence of Integrin alpha1beta1 (chain, as listed by the source, chain 2 of 2): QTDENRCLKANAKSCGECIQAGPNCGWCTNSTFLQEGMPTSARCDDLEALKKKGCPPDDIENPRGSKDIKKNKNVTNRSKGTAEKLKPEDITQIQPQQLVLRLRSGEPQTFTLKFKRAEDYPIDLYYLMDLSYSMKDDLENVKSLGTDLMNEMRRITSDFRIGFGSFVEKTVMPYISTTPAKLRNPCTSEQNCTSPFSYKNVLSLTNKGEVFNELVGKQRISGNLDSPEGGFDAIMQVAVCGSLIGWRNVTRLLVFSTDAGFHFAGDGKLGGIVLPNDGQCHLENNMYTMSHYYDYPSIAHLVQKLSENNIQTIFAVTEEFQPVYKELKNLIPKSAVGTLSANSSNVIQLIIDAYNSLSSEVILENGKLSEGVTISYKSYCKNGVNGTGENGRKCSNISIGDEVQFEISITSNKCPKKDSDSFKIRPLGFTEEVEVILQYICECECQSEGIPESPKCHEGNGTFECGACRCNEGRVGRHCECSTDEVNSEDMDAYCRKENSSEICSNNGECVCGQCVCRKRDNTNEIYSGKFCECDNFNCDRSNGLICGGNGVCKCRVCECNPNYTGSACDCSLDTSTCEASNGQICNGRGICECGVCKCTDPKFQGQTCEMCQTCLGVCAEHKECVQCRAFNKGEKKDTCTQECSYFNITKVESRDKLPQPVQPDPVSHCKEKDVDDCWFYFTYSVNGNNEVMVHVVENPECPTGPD

The assay has as its target Integrin alpha1beta1 (Homo sapiens, UniProt P56199). Description: MST.
Molecule NKESGFPGLR [Collagen alpha-6(IV) chain peptide 8] displayed a Kd of 1470 µM. Molecule FKGTKGRDGL [Collagen alpha-6(IV) chain peptide 25] showed a dissociation constant (Kd) of 351 µM. With KGARGDRGSG [Collagen alpha-6(IV) chain peptide 10], the Kd amounted to 47.3 µM.

The molecule DPGFPGMKGK [Collagen alpha-6(IV) chain peptide 30] registered a dissociation constant (Kd) of 19.7 µM. Against the preceding molecule, the Kd is about 2.4-fold lower. Under GPPGSIVKKG [Collagen alpha-6(IV) chain peptide 19] stands 2190 µM; under GFQGEKGVKG [Collagen alpha-6(IV) chain peptide 5], 790 µM. Under LAPGSFKGMK [Collagen alpha-6(IV) chain peptide 4] stands 59.2 µM.

For the origin of these results see article PMC8708666 (2021).
